From patent US20020173621A1, “Method for producing dimerized polypeptide fusions” (ZymoGenetics, Inc., published 2002) come the findings set out here.

For assay [1], the target named is tetrameric PDGF β-receptor analog (purified from pSDL114+pSDL113 co-transfected cells) (human). The assay can be described thus: saturation binding, analog plated at 12.1 ng/ml on goat anti-human IgG coated wells.
Assay [2] shares this target. Description: saturation binding, analog plated at 24.3 ng/ml on goat anti-human IgG coated wells.
Assay [3] deals with T1, tetrameric PDGF β-receptor analog (purified from pSDL114+pSDL113 co-transfected cells) (human).
T1 heavy: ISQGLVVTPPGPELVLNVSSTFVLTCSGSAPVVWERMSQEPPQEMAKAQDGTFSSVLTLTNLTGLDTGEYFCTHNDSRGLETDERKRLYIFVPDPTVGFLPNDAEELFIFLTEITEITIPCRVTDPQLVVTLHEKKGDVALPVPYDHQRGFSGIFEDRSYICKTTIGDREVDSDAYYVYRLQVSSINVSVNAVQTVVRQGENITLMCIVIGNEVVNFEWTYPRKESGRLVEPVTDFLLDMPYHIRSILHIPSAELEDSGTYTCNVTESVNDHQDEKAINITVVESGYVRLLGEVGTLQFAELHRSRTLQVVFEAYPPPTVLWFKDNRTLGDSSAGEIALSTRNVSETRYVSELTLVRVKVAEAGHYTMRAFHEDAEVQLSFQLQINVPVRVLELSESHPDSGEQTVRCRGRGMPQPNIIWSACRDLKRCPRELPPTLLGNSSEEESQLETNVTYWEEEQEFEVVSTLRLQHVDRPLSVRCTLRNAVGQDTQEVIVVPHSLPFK
T1 light: T1 heavy
Description: solid phase radioreceptor competition binding assay, analog plated at 48.6 ng/ml, unlabeled PDGF-BB against 125I-labeled PDGF-BBTyr. As for the experimental part:
In a solid phase radioreceptor competition binding assay (RRA), the wells of 96-well microtiter plates were coated with 100 μl of 2 μg/ml affinity purified goat anti-human IgG (Cappel Labs) diluted in 0.1 M Na₂HCO₃, pH 9.6. After an eighteen hour incubation at 4° C., the wells were washed once with ELISA C. The wells were blocked by incubation for 2 hours at 37° C. with 175 μl/well ELISA B. […] The unbound receptor was removed, and the test wells were incubated with increasing concentrations of serially diluted, unlabeled PDGF-BB (diluted in binding media. Following a two hour incubation at room temperature, the wells were washed three times with binding media. One hundred microliters of 5 ng/ml ¹²⁵I-labeled PDGF-BBTyr (Example 18.F.) was added to each well, and the plates were incubated for an additional two hours at room temperature. The wells were washed three times with binding media followed by a 5 minute incubation with 100 μl/well of 0.1 M citrate, pH 2.5. The samples were harvested and counted in a gamma counter.

Regarding “PDGF-BBTyr (PDGF-BB mutant molecule having a tyrosine replacing the phenylalanine at position 23) (from UniProt P01127) (ligand)”, the half-maximal binding in assay [1] was 0.8 ng/mL; in assay [2], 0.82 ng/mL.

B1: PDGF-BB (ligand)
chain: SLGSLTIAEPAMIAECKTRTEVFEISRRLIDRTNANFLVWPPCVEVQRCSGCCNNRNVQCRPTQVQLRPVQVRKIEIVRKKPIFKKATVTLEDHLACKCETVAAARPVT
In general, IC50 refers to the point on the concentration scale where inhibition reaches its midpoint. High values mean a need for much substance, low ones inhibition by little substance. For the molecule B1, the IC50 in assay [3] amounted to 8 ng/mL.
